Laboratory results from patent US9360484B2, “Anti-FcRH5 antibodies and immunoconjugates and methods of use” (Genentech, Inc., priority 2009, dated 2016).

T1: human FcRH5 (Homo sapiens, UniProt Q96RD9)
T1 construct: vectors that expresses the His-tagged extra-cellular domain (ECDs) of the FcRH5/IRTA2 into CHO cells; His tag (HIS6); made in house; host or cells: CHO cells (transient transfection)
T1 sequence (Q96RD9 16-851 limits assumed): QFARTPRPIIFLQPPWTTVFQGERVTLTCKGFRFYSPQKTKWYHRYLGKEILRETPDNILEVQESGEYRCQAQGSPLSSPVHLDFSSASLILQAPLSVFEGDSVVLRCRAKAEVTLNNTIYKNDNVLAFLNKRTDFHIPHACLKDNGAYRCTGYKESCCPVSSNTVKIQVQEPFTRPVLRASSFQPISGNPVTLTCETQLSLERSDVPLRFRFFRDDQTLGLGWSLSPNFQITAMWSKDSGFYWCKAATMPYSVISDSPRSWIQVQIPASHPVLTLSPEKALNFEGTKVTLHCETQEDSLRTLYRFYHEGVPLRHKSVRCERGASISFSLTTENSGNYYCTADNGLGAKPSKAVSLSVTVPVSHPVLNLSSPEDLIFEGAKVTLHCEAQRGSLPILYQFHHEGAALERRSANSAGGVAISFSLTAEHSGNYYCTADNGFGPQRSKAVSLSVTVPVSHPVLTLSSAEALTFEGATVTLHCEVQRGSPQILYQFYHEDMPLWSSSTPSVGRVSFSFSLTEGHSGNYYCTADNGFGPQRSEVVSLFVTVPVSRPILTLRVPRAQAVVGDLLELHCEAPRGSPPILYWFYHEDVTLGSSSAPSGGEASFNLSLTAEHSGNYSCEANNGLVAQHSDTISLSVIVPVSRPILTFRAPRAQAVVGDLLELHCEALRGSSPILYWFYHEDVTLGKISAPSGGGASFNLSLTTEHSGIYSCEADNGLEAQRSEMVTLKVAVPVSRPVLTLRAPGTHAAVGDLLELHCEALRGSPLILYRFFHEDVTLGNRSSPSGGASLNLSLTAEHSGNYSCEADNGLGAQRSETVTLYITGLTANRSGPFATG

T2: human FcRH5 (Homo sapiens, UniProt Q96RD9, G418D/L733P/S890P/V466I/Y267H)
T2 construct: expressed in transfected cells; host or cells: OPM2 multiple myeloma cells
T2 sequence (Q96RD9 16-977 Y267H/G418D/V466I/L733P/S890P): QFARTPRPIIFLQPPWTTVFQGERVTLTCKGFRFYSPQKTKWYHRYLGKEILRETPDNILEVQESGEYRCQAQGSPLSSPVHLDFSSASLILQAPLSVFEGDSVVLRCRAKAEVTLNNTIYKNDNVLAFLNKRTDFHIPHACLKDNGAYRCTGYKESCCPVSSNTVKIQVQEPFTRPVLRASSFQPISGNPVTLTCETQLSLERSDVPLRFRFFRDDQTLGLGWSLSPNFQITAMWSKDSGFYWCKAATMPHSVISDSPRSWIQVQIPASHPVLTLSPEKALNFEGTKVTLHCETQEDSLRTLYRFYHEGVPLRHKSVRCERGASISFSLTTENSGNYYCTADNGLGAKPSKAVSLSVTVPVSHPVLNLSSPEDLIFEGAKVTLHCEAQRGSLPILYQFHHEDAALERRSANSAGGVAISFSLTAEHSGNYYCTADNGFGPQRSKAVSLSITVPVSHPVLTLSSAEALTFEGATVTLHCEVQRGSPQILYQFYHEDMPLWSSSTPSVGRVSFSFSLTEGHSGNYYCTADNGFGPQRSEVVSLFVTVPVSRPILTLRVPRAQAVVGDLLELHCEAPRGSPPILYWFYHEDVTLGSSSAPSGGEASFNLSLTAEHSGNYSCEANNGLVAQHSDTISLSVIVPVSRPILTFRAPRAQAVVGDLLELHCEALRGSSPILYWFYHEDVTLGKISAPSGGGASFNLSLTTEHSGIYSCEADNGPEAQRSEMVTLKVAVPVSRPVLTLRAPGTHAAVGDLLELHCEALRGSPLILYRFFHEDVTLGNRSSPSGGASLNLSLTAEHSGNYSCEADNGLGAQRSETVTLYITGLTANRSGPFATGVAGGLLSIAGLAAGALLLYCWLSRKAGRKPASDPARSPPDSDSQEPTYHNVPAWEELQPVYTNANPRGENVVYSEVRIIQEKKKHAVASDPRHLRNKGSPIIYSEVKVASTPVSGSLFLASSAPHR

B1: 13G9: murine monoclonal antibody binding human FcRH5 (antibody, V domains shown)
VH: EVQLVQSGPELKKPGETVKISCKASGYTFTNYGMNWVKQAPGKGLKWMGWVNTYTGEPTYTDDFKGRFAFSVETSASTVFLQINNLKNEDTATYFCARRSIPYYYAMDYWGQGTSLT
VL: DIVMTQSQKIMSTSVGDRVNVTCKASQNVGSNVAWYHQKPGQSPKALIYSASYRYSGVPDRFTGSGSGTDFTLTISNVQSEDLAEYFCQQYKTWTFGGGTKLEIKR
B2: hu10A8 v1: humanized 10A8 antibody, variable domains SEQ ID NO: 19 and SEQ ID NO: 21 (antibody, V domains shown)
VH: EVQLVESGGGLVQPGGSLRLSCAASGFTFSSYAVSWVRQAPGKGLEWVATISSGGSLTFYLDSVRGRFTISRDNSKNTLYLQMNSLRAEDTAVYYCARPIPDYYALDYWGQGTLVTVSS
VL: DIQMTQSPSSLSASVGDRVTITCKASQDVSTAVAWYQQKPGKAPKLLIYSASYRYTGVPSRFSGSGSGTDFTLTISSLQPEDFATYYCQQHFSSPRTFGQGTKVEIKR
B3: 10A8: murine anti-FcRH5 monoclonal antibody, light chain variable domain SEQ ID NO: 18, heavy chain variable domain SEQ ID NO: 20 (antibody, listed as Mus musculus, V domains shown)
VH: EVQLVESGGGLVKPGGSLKISCAASGFTFSSYAVSWVRQTPEKRLEWVATISSGGSLTFYLDSVRGRFTISRDNAKNTLYLQMSSLRSEDTAMYYCARPIPDYYALDYWGQGTSVTVSS
VL: DIVMTQSHKFMSTSVRDRVSITCKASQDVSTAVAWYQQKPGQSPKLLIYSASYRYTGVPDRFTGSGSGTDFTFTISSVQAEDLAVYYCQQHFSSPRTFGGGTKVEIKR
modifications: Variable Domain of Heavy Chain of Humanized Antibody (mu10A8)

Key:
human FcRH5 [1] = molecular target: T1, human FcRH5; test: Affinity determination (Biacore analysis) of murine anti-FcRH5 IgGs; details: murine IgG captured on chip, 25° C., 1:1 Langmuir binding model; read-out: Affinity (Biacore) to Hu antigen
Method: The FcRH-binding affinities of IgGs were calculated from association and dissociation rate constants measured using a Biacore 2000 surface plasmon resonance system (BIAcore, Inc.). A biosensor chip was activated for covalent coupling of either anti-murine IgG (BR-1008-338) using N-ethyl-N′-(3-dimethyaminopropyl)-carbodiimide hydrochloride (EDC) and N-hydroxysuccinimide (NHS) according to the supplier's instruction (BIAcore, Inc.). Briefly, for each cycle of kinetic analysis, 5 ul of 100 nM IgG was captured on the chip, two-fold serial dilution of various FcRHs were injected at a flow rate of 20 ul/min for 150 sec. Antigen dissociation was monitored for 180 sec before regeneration. Equilibrium dissociation constants at 25° C. were calculated by fitting the data with a 1:1 Langmuir binding model. Running buffer was PBS with 0.05% Tween −20. All the antibodies bound antigen with sufficient affinity to be used as a therapeutic.

cynomolgus FcRH5 = test: Cyno cross-reactivity by FACS on stably transfected cells (SVT2 cells expressing cynoFcRH5); format: binding, cynomolgus monkey; details: 1.0, 0.1 or 0.01 μg antibody per million SVT2 cells stably expressing cynoFcRH5
Method: For additional FACS analysis of FcRH5 antibodies, 1.0 μg, 0.1 μg or 0.01 μg of antibody was titrated per million cells of BJAB cells stably expressing huFcRH5 and SVT2 cells stably expressing cynoFcRH5. Briefly, approximately 10^6 cells in 100 μl were incubated with varying amounts (1.0 ug, 01. ug or 0.01 ug) of murine Ab mu1H4, mu6H1, mu7D11, mu9E2, mu10A8, mu10F5, or mu13G9 per million cells of BJAB cells stably expressing huFcRH5 and SVT2 cells stably expressing cynoFcRH5. Incubation with 1.0 ug/10^6 cells of the appropriate Mu IgG isotype control was used as a negative control. PE conjugated Rat anti-MuIgG1 or Rat anti-MuIgG2a+b was used as the secondary detection antibody.

human FcRH5 [2] = molecular target: T2, human FcRH5; test: Affinity determination (Scatchard analysis) on cells expressing human FcRH5; format: binding; details: by FACS and Scatchard analysis
Method: To further determine binding of the FcRH5 murine antibodies and IgG clones, binding of iodinated IgG variants to OPM2 cells expressing human FcRH5 and SVT2 cells expressing cynomologous FcRH5, Scatchard analysis was performed.
After a four hour incubation at 4° C., cells were washed and cell pellet counts were read by a gamma counter (1470 WIZARD Automatic Gamma Counter; Perkin Elmer, Walthem, Mass.). All points were done in triplicate and counted for 10 minutes. The average CPM was used for Kd calculation using the New Ligand (Genentech, South San Francisco, Calif.) program.

[3] = tested on: OPM2.CMV.PD.FcRH5.5P.2 cells; test: In vitro cell proliferation assay (CellTiter-Glo Luminescent Cell Viability Assay); format: cell-based, human; details: OPM2.CMV.PS.FcRH5.5P.2 cells, 3 days incubation
From the text: The homogeneous “add-mix-measure” format results in cell lysis and generation of a luminescent signal proportional to the amount of ATP present. The substrate, Beetle Luciferin, is oxidatively decarboxylated by recombinant firefly luciferase with concomitant conversion of ATP to AMP and generation of photons. Viable cells are reflected in relative luminescence units (RLU). Data can be recorded by luminometer or CCD camera imaging device. […] Alternatively, photons from luminescence can be counted in a scintillation counter in the presence of a scintillant.
3. The plates were equilibrated to room temperature for approximately 30 minutes.
5. The contents were mixed for 2 minutes on an orbital shaker to induce cell lysis.
6. The plate was incubated at room temperature for 10 minutes to stabilize the luminescence signal.

human FcRH1-6 = test: FACS cross-reactivity analysis on SVT2 cells stably expressing gD tagged huFcRH1-6; format: binding; details: 1.0 ug Ab (or 100 μl hybridoma supernatant) per 10^6 SVT2 cells expressing gD tagged huFcRH1-6
Method: To determine the cross-reactivity of FcRH5 antibodies, binding of IgG variants to SVT2 cells, expressing human FcRH1-6 were analyzed using FACS analysis.
Briefly, approximately 10^6 cells of SVT2 cells stably expressing gD tagged huFcRH1-6 in 100 μl were incubated with 1.0 ug of murine or chimeric Ab [Mu anti-gD (positive control), Mu anti-FcRH5 (1H4) (“mu1H4”), Mu anti-FcRH5 (4D10) (“mu4D10”), Mu anti-FcRH5 (6H1) (“mu6H1”), Mu anti-FcRH5 (7D11) (“mu7D11”), Ch anti-FcRH5 (7D11) (“ch7D11”), Mu anti-FcRH5 (8116) (“mu8H6”), Mu anti-FcRH5 (9E2) (“mu9E2”), or Mu anti-FcRH5 (13G9) (“mu13G9”)]. Incubation of SVT2 cells stably expressing the empty vector was incubated with the same antibodies and used as a negative control. PE conjugated Rat anti-MuIgG1, Rat anti-MuIgG2a+b, or Mu anti-HuIgG was used as the secondary detection antibody.
To further determine the cross-reactivity of FcRH5 antibodies, binding of IgG variant supernatants to SVT2 cells, expressing human FcRH1-6 were analyzed using FACS analysis.
Briefly, approximately 10^6 cells of SVT2 cells stably expressing gD tagged huFcRH1-6 were incubated with 1.0 μg purified Ms anti-gD antibody or 100 μl (concentration unknown) of murine Ab hybridoma supernatant (Mu anti-FcRH5 (10A8) (“mu10A8”), Mu anti-FcRH5 (10F5) (“mu10F5”)). […]

Sequence of cynomolgus FcRH5 (as listed by the source): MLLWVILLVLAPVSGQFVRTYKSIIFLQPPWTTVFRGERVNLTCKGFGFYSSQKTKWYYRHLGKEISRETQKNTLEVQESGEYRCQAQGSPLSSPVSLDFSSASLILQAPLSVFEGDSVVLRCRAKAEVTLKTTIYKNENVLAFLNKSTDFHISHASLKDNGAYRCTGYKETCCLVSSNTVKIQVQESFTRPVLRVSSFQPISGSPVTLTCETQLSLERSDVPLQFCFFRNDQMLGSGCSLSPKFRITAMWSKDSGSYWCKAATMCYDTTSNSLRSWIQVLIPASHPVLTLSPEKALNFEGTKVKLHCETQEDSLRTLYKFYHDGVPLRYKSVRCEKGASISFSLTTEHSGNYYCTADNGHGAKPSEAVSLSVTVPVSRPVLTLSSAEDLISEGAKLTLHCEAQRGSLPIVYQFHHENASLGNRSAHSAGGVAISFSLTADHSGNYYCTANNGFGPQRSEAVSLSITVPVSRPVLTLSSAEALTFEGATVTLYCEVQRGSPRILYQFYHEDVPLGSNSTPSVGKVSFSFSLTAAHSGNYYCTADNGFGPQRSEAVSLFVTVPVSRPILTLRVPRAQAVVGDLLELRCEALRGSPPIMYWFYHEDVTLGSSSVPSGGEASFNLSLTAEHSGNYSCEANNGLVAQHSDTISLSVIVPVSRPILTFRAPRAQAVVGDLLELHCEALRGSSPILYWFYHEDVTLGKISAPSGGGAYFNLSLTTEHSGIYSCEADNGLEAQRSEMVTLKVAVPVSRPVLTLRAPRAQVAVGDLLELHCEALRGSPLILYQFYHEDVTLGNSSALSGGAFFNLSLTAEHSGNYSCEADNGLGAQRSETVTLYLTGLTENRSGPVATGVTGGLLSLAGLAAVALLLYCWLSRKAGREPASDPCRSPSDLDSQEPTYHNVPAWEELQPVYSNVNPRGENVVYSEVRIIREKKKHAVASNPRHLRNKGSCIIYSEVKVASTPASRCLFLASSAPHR

Row | Molecule | Kd (human FcRH5 [1]) [nM] | cross reaction with cynomolgus FcRH5 by FACS analysis (cynomolgus FcRH5) | relative binding affinity of humanized version 1 and the chimera (human FcRH5 [2]) | in vitro cell growth inhibition (in words) [3] | specificity of binding among huFcRH1-6 by FACS (human FcRH1-6)
1 | B1 | 19 | cross react with cynomolgus FcRH5 |  |  | 
2 | B2 |  |  | equivalent to the chimera | no in vitro cell growth inhibition | 
3 | B3 |  | cross react with cynomolgus FcRH5 |  |  | specifically bind FcRH5
